The text below walks through data of patent publication US20220119513A1 (ZOETIS SERVICES, published 2022).

Experiment [1] concerns the target T1, TGFβ3 (R&D Systems) (Homo sapiens (Human), UniProt P10600 301-412, Active TGFβ3 is a disulfide-linked homodimer of this chain; one copy is given.).
T1 construct: also called TGFB3
T1 sequence: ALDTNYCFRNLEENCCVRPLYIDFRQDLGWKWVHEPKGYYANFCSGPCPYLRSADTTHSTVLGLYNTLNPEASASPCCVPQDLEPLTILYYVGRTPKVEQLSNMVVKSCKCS
In words: SPR. (In general: In SPR one partner is held on a chip, and binding of the other changes the refractive index at the surface.)

Experiment [2] deals with TGFβ1 (R&D Systems). The experiment in a line: cell-based or functional assay.
The target in experiment [3] is T1, TGFβ3 (R&D Systems). In words: cell-based or functional assay.
The target in another experiment is canine TGFβ1 (canine, UniProt P54831 279-390, limits assumed). The experiment in a line: SPR, TGFβ on chip. The source says: (§1) To avoid affinity differences associated with differential surface preparation that can occur when immobilizing antibodies to surfaces, TGFβ1, TGFβ2, and TGFβ3 (R&D Systems) were directly conjugated to the individual surface. Immobilization was obtained by amine coupling […] using N-hydroxysuccinimide (NHS)/1-Ethyl-3-(3-dimethylaminopropyl) carbodiimide (EDC) chemistry. Chips were quenched with ethanolamine and the affinity with which all candidate mAbs bound to the immobilized TGFβ was evaluated. All curves were fit to a 1:1 model. Affinities <10⁻¹¹ are below the lower limit of quantitation of detection for the instrument.

The next experiment has as its target T2, canine TGFβ2 (canine, UniProt A0A8I3PZZ6 331-442).
T2 sequence: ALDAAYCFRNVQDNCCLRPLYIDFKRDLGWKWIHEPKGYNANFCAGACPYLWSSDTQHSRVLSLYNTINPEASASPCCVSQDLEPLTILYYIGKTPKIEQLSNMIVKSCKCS
In words: SPR, TGFβ on chip.
Text: as §1

A further experiment deals with T3, canine TGFβ3 (canine, UniProt A0A8I3S1P1 346-457).
T3 sequence: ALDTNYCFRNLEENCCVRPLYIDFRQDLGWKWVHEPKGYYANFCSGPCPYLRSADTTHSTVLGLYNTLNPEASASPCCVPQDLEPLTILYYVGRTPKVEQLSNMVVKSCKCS
The experiment in a line: SPR, TGFβ on chip.
Text: as §1

Experiment [4] has as its target TGFβ1 (R&D Systems). The experiment in a line: cell-based or functional assay. This is another data set of the same source.
Experiment [5] deals with T1, TGFβ3 (R&D Systems). The experiment in a line: cell-based or functional assay. This is another data set of the same source.
The target of experiment [6] is T4, TGFβ1 (R&D Systems).
T4 construct: also called TGFB1
In words: SPR full titration.

Where two headings read alike, the source gives them in different places.

canine TGFβ1, sequence (P54831 279-390 limits assumed): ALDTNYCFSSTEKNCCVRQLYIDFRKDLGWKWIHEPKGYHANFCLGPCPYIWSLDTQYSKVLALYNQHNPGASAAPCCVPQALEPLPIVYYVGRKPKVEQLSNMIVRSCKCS
T4 sequence (P01137 279-390): as the sequence (P54831 279-390 limits assumed) above

B1: felHclb_heterochimera-11 (antibody, V domains shown)
VH: QVLLVQSGAEVRRPGASVKIFCKASGYIFITYYMHWLRQAPAQGFEWMGSIFPASGSTSYAQKFQGRLTLTADTSTDTAYMELSSLRSADTAVYYCARGDGNYALDAMDYWGHGTIVTVSS
VL: DIVLTQTPASLAVSLGQRATISCRASESVDSYGNSFMHWYQQKSGQPPKLLIYLASNLESGVPARFSGSGSRTDFTLTIDPVEADDAATYYCQQNNEDPLTFGAGTK
notes: hetero-pairing; also called felHclbH636/mHclbVL
On to B1, for which the binding result with TGFβ3 (R&D Systems) [1] is given as “no binding”.

B2: fel04H09-17 (antibody, V domains shown)
VH: QVLLVQSGAEVRRPGASVKIFCKASGYSFTSSWMNWLRQAPAQGFEWMGQIYPGDGDTNYNGKFKGRLTLTADTSTDTAYMELSSLRSADTAVYYCARHYDGSTDYWGHGTIVTVSS
VL: AITMTQSPGSLAGSPGQQVTMNCRASENIYSNLAWYQQKPGQHPKLLIYAATNLADGVPDRFSGSGSGTDFTLTISNLQAEDVASYYCQHFWGTPYTFGGGT
On to B2, for which, in the experiment with TGFβ1 (R&D Systems) [2], the “CMVIC pSmad-3, IC50” value was determined as 0.89 nM and the “CRFK pSmad-3, IC50” value was 0.73 nM. Also, in the experiment with TGFβ3 (R&D Systems) [3], the “CMVIC pSmad-3, IC50” value was found to be 39.9 nM and the “CRFK pSmad-3, IC50” value was determined as 370 nM.

B3: fel04H09-24 (antibody, V domains shown)
VH: QVLLVQSGAEVRKPGASVKIFCKASGYSFTSSWMNWLRQAPEQGLEWMGQIYPGDGDTNYNGKFKGRLTLTADTSTNTAYMELSSLRSADTAMYYCARHYDGSTDYWGQGALVTVSS
VL: DIVMTQTPLSLPVTPGEPASISCRASENIYSNLAWYLQKPGQSPRLLIYAATNLADGVPSRFSGSGSGTDFTLRISSVEADDVGVYYCQHFWGTPYTFGQGT
For the molecule B3, the “CRFK pSmad-3, IC50” value with TGFβ1 (R&D Systems) [2] came out at 0.5 nM; with TGFβ3 (R&D Systems) [3], 30.1 nM.

B4: Can04H09 VH3/VL4 (antibody, V domains shown)
VH: EVQLVQSAAEVKKPGASVKVSCKTSGYTFTSSWMNWVQQAPGAGLDWMGQIYPGDGDTNYNGKFKGRVTLTADTSTSTAYMELSSLRAEDTAVYYCARHYDGSTDYWGQGTLVTVSS
VL: EIVMTQSPASLSLSQGEKVTITCRASENIYSNLAWYQQRPGQAPKLLIYAATNLADGVPSRFSGSGSGTDFSLTISSLEPEDVAVYYCQHFWGTPYTFGQGTK
In general, Kd refers to the constant that tells how readily two partners part at equilibrium. A higher Kd goes with weaker binding. In the case of B4, the values for the Kd with canine TGFβ1, with canine TGFβ2 and in the experiment with canine TGFβ3 were 1.38 nM, 32.1 nM and 6.06 nM, respectively. In addition, the “CMVIC pSmad-3, IC50” value in the experiment with TGFβ1 (R&D Systems) [4] amounted to 0.74 nM; in the experiment with TGFβ3 (R&D Systems) [5] it was 52.8 nM.

B5: Can04H09 VH2/VL4 (antibody, V domains shown)
VH: EVQLVQSAAEVKKPGASVKVSCKTSGYSFTSSWMNWVQQAPGKGLDWMGQIYPGDGDTNYNGKFKGRVTLTADKSTSTAYMELSSLRSEDAAVYYCARHYDGSTDYWGQGTLVTVSS
VL: EIVMTQSPASLSLSQGEKVTITCRASENIYSNLAWYQQRPGQAPKLLIYAATNLADGVPSRFSGSGSGTDFSLTISSLEPEDVAVYYCQHFWGTPYTFGQGTK
For the molecule B5, the Kd stood at 1.42 nM with canine TGFβ1, 32.9 nM with canine TGFβ2 and 6.03 nM with canine TGFβ3. Also, the “CMVIC pSmad-3, IC50” value with TGFβ1 (R&D Systems) [4] worked out at 0.84 nM; with TGFβ3 (R&D Systems) [5], 69.5 nM.

B6: Can04H09 VH3/VL3 (antibody, V domains shown)
VH: EVQLVQSAAEVKKPGASVKVSCKTSGYTFTSSWMNWVQQAPGAGLDWMGQIYPGDGDTNYNGKFKGRVTLTADTSTSTAYMELSSLRAEDTAVYYCARHYDGSTDYWGQGTLVTVSS
VL: EIVMTQSPASLSLSQEEKVTITCRASENIYSNLAWYQQKPGQAPKLLIYAATNLADGVPSRFSGSGSGTDFSFTISSLEPEDVAVYYCQHFWGTPYTFGQGTK
Regarding B6, the figures for the Kd with canine TGFβ1, in the experiment with canine TGFβ2 and with canine TGFβ3 were 2.79 nM, 48.8 nM and 9.08 nM, respectively. The “CMVIC pSmad-3, IC50” value in the experiment with TGFβ1 (R&D Systems) [4] came out at 1.18 nM; with TGFβ3 (R&D Systems) [5], 72.8 nM.

B7: Can04H09 VH1/VL3 (antibody, V domains shown)
VH: EVQLVQSGAEVKKPGASVKVSCKTSGYTFISSWMNWVRQAPGAGLDWMGQIYPGDGDTNYNGKFKGRVTLTADTSTSTAYMELSSLRAGDIAVYYCARHYDGSTDYWGQGTLVTVSS
VL: EIVMTQSPASLSLSQEEKVTITCRASENIYSNLAWYQQKPGQAPKLLIYAATNLADGVPSRFSGSGSGTDFSFTISSLEPEDVAVYYCQHFWGTPYTFGQGTK
Turning to B7, the dissociation constant (Kd) stood at 2.43 nM with canine TGFβ1, 32 nM with canine TGFβ2 and 6.52 nM in the experiment with canine TGFβ3. Moreover, the “CMVIC pSmad-3, IC50” value turned out to be 0.66 nM with TGFβ1 (R&D Systems) [4] and 467 nM with TGFβ3 (R&D Systems) [5].

B8: mouse SL501 (antibody, V domains shown)
VH: EVQLVESGGGVVQPGRSLRLSCAASGFTFSSYGMHWVRQAPGKELEWVAVISYDGSIKYYADSVKGRFTISRDNSKNTLYLQMNSLRAEDTAVYYCARTGEYSGYDTDPQYSWGQGTTVTVSS
VL: EIVLTQSPSSLSASVGDRVTITCRASQGIGDDLGWYQQKPGKAPILLIYGTSTLQSGVPSRFSGSGSGTDFTLTINSLQPEDFATYYCLQDSNYPLTFGGGTK
notes: called engineered mouse antibody and also precursor human antibody from phage display; also called mouse-SL501-VH/mouse-SL501-VL; SL501 (murine)
For the molecule B8, binding in the experiment with TGFβ1 (R&D Systems) [6] was put at a Kd of 0.00705 nM.

B9: Chimera-SL501-VH/CanSL501-VL-hybrid (antibody, V domains shown)
VH: EVQLVESGGGVVQPGRSLRLSCAASGFTFSSYGMHWVRQAPGKELEWVAVISYDGSIKYYADSVKGRFTISRDNSKNTLYLQMNSLRAEDTAVYYCARTGEYSGYDTDPQYSWGQGTTVTVSS
VL: EIVLTQSPSSLSASVGDRVTITCRASQGIGDDLGWYQQKPGQAPKLLIYGTSTLQSGVPSRFSGSGSGTDFSFTISSLEPEDVAVYYCLQDSNYPLTFGGGTK
notes: constant regions not restated
Take B9: in the experiment with TGFβ1 (R&D Systems) [6], the Kd is 0.0428 nM.

B10: Chimera-SL501-VH/Can-SL501-VL2 (antibody, V domains shown)
VH: EVQLVESGGGVVQPGRSLRLSCAASGFTFSSYGMHWVRQAPGKELEWVAVISYDGSIKYYADSVKGRFTISRDNSKNTLYLQMNSLRAEDTAVYYCARTGEYSGYDTDPQYSWGQGTTVTVSS
VL: EIVMTQSPGSLAGSAGESVSINCRASQGIGDDLGWYQQKPGERPKLLIYGTSTLQSGVPARFSSSGSGTDFTLTINNLQAEDVGDYYCLQDSNYPLTFGAGTK
notes: also called heterochimeric SL501
B10 gave a Kd with TGFβ1 (R&D Systems) [6] of 0.000192 nM.

B11: Can-SL501_VH2/Chimera-SL501-VL (antibody, V domains shown)
VH: EVQLVESGGDLVKPGGSLRLSCVASGFTFSSYGMHWVRQAPGKGLQWVAVISYDGSIKYYADAVKGRFTISRDNAKNTLYLQMNSLRAEDTAMYYCAKTGEYSGYDTDPQYSWGQGTLVTVSS
VL: EIVLTQSPSSLSASVGDRVTITCRASQGIGDDLGWYQQKPGKAPILLIYGTSTLQSGVPSRFSGSGSGTDFTLTINSLQPEDFATYYCLQDSNYPLTFGGGTK
notes: as for B10
B11 yielded a Kd with TGFβ1 (R&D Systems) [6] of 1090 nM.

B12: Can-SL501-VH1/Chimera-SL501-VL (antibody, V domains shown)
VH: EVQLVESGGDLVKPGGSLRLSCVASGFTFSSYGMHWVRQAPGKGLQWVAVISYDGSIKYYTDAVKGRFTISRDNARNTVYLQMNSLRAEDTAVYYCAKTGEYSGYDTDPQYSWGQGTLVTVSS
VL: EIVLTQSPSSLSASVGDRVTITCRASQGIGDDLGWYQQKPGKAPILLIYGTSTLQSGVPSRFSGSGSGTDFTLTINSLQPEDFATYYCLQDSNYPLTFGGGTK
notes: as for B10
Turning to B12, the Kd with TGFβ1 (R&D Systems) [6] came out at 1100 nM.

B13: Chimera-SL501-VH/Can-SL501-VL1 (antibody, V domains shown)
VH: EVQLVESGGGVVQPGRSLRLSCAASGFTFSSYGMHWVRQAPGKELEWVAVISYDGSIKYYADSVKGRFTISRDNSKNTLYLQMNSLRAEDTAVYYCARTGEYSGYDTDPQYSWGQGTTVTVSS
VL: EIVMTQSPASLSLSQEEKVTITCRASQGIGDDLGWYQQKPGQAPKLLIYGTSTLQSGVPSRFSGSGSGTDFSFTISSLEPEDVAVYYCLQDSNYPLTFGAGTK
notes: as for B10
B13 had a Kd with TGFβ1 (R&D Systems) [6] of 60.8 nM.

B14: Can-SL501_VH1/CanSL501-VL-hybrid (antibody, V domains shown)
VH: EVQLVESGGDLVKPGGSLRLSCVASGFTFSSYGMHWVRQAPGKGLQWVAVISYDGSIKYYTDAVKGRFTISRDNARNTVYLQMNSLRAEDTAVYYCAKTGEYSGYDTDPQYSWGQGTLVTVSS
VL: EIVLTQSPSSLSASVGDRVTITCRASQGIGDDLGWYQQKPGQAPKLLIYGTSTLQSGVPSRFSGSGSGTDFSFTISSLEPEDVAVYYCLQDSNYPLTFGGGTK
notes: constant regions not restated
The molecule B14 registered a Kd in the experiment with TGFβ1 (R&D Systems) [6] of 4.01 nM.
